From the supplement of paper PMC7125110
± gives the standard error. This sample holds only a part of the variants without activity.

B1: glmS ribozyme (parent)
chain: AUAAAAGCGCCAGAACUACAGAAAUGUAGUUGACGAGGAGGAGGUUUAUCGAAUUUUCGGCGGAUGCCUCCAAA

Tests used:
Settings in all cases: with glucosamine-6-phosphate
glucosamine-6-phosphate [1] = variants of: B1; assay: self-cleavage kobs at 160 uM GlcN6P; higher = faster cleavage; RNA array
Outline: (§1)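 In situ transcription by E. coli RNA polymerase produced barcoded ribozyme variants on sequenced MiSeq chips, and a hybridised Cy3 probe tracked them at 37 °C. Glucosamine-6-phosphate was flowed in at 40 μM to 10 mM in HEPES/KCl/Mg(OAc)2 buffer. kcat and KM were taken from weighted Michaelis–Menten fits of kobs values from exponential decay fits.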

glucosamine-6-phosphate [2] = variants of: B1; assay: self-cleavage kobs at 640 uM GlcN6P; higher = faster cleavage; RNA array
Outline: as §1

glucosamine-6-phosphate [3] = variants of: B1; assay: self-cleavage kobs at 40 uM GlcN6P; higher = faster cleavage; RNA array
Outline: as §1

glucosamine-6-phosphate [4] = variants of: B1; assay: self-cleavage kobs at 2500 uM GlcN6P; higher = faster cleavage; RNA array
Outline: as §1

glucosamine-6-phosphate [5] = variants of: B1; assay: self-cleavage kobs at 10000 uM GlcN6P; higher = faster cleavage; RNA array
Outline: as §1

Row | Variant | self-cleavage kobs at 160 uM GlcN6P (glucosamine-6-phosphate [1]) | self-cleavage kobs at 640 uM GlcN6P (glucosamine-6-phosphate [2]) | self-cleavage kobs at 40 uM GlcN6P (glucosamine-6-phosphate [3]) | self-cleavage kobs at 2500 uM GlcN6P (glucosamine-6-phosphate [4]) | self-cleavage kobs at 10000 uM GlcN6P (glucosamine-6-phosphate [5])
1 | AUAAAGGCGUCAGAACUACAGAAAUGUAGUUGACGAGGAGGAGGUUUAUCGAAUUUCCGGCGGAUGCCUCCAAA | < 1e-05 s⁻¹ | – | – | – | –
2 | AUAAAAGCGCCAGAAAUACAGAAAUGUAGUUGACGAGCAGGAGGUUUAUCGAAUUUUCGGCGGAUGCUUCCAAA | < 1e-05 s⁻¹ | < 1e-05 s⁻¹ | – | – | –
3 | AUAAAUGCGCCAGAACUACAGAAAUGUAGUUGACGAGGAGGAGGUUUCUCGAAUUUGCGGCGGAUGCCUCCAAA | < 1e-05 s⁻¹ | – | – | – | –
4 | AUAAAAGGGCCAGAACUACAGAAAUGUAGCUGACGAGGAGGAGGUUUAUCGAAUUUUCGGCGGAUGCCUCCAAA | – | – | < 1e-05 s⁻¹ | < 1e-05 s⁻¹ | < 1e-05 s⁻¹
5 | AUAAAAGCGGCAGAACUACAGAAAUGUAGUUUAUGAGGAUCAGGUUUAUCGAAUUUUCGGCGGAUGCCUCCAAA | < 1e-05 s⁻¹ | < 1e-05 s⁻¹ | – | < 1e-05 s⁻¹ | –
6 | AUAAAAGCGCCAGAAGUACAGAAAUGUAGUUGACGAGGAGGAGGUAUAUAGAAUUUUCGGCGGAUGCCGCCAAA | 0.000562 ± 0.00018 s⁻¹ | – | – | – | –
7 | AUAAAAUCGACAGAACUACAGAAAUGUACUUGACGAGGAGGAGGUUUAUCGAAUUUCCGGCGGAUGCCUCCAAA | < 1e-05 s⁻¹ | < 1e-05 s⁻¹ | – | < 1e-05 s⁻¹ | –
8 | AUAAAAGCGCCAGAACUACAGAAAUGUAGUUGACAAGGAGGAGGUUUAGCGAAUUUUCGGCGGAUGCCUCCAAA | – | – | < 1e-05 s⁻¹ | – | –
9 | AUAAAAGCGCCAGAGCUACAGAAAUGUAGUUGACGAGGAGGAGGUUUAGCGAAUUUUCGGCGUAUGACUCCAAA | < 1e-05 s⁻¹ | < 1e-05 s⁻¹ | – | – | –
10 | AUAAAAGCGCCAGAACUACAGAAAUGUAGUUGACGAGCAGGAGGUUUAUCGAAUUUUCCGCGGAUGGCUCCAAA | < 1e-05 s⁻¹ | – | – | < 1e-05 s⁻¹ | –
11 | AUAAAAGCGCCAAAACUACAGAAAUGUAGUUGACGAGGAGGGUGUUUAUCGAAUUUUCGGCGGAUGCCUACAAA | < 1e-05 s⁻¹ | < 1e-05 s⁻¹ | – | – | < 1e-05 s⁻¹
12 | AUAAAAGCGCCAGAACUACAGAAAUGUAGUUGAUGAGGAGGAGGUUUAUCGAAUAUUCGUCGGAUGCCUCCAAA | – | < 1e-05 s⁻¹ | < 1e-05 s⁻¹ | – | –
13 | AUAAAAGCGGCAGUACUACAGAAAUGUAGUUGACGAGGAGGUGGUUUAUCGAAUUUUCGCCGGAUGGCUCCAAA | < 1e-05 s⁻¹ | – | – | – | –
14 | AUAAAAGCGCCAGGACUACAGAAAUGUAGUUGACUAGGAAGAGGUUUAUCGAAUUUUCGGCGGAUGCCUCCAAA | < 1e-05 s⁻¹ | – | – | – | –
15 | AUAAAAGCGCCAGAAUUACAGAAAUGUAGUUGACGAGGAGGAUGUUUAUCGAAUUUCCGGCGGAUGCCUCCAAA | < 1e-05 s⁻¹ | < 1e-05 s⁻¹ | – | < 1e-05 s⁻¹ | –
16 | AUAAAAGCCCCAGAACUACAGAAAUGUAGUUGUCGGGGAGGAGGAUUCUCGAAUUUUCGGCGGAUGCCUCCAAA | < 1e-05 s⁻¹ | < 1e-05 s⁻¹ | – | < 1e-05 s⁻¹ | –
17 | AUAAAAUUGCCAGAACUACAGAAAUGUAGUUGACGAGGAGGAGGUUUAUCGAAUUUUCGGCGGAUGUCUCCAAA | – | – | < 1e-05 s⁻¹ | – | –

Row | Variant | self-cleavage kobs at 160 uM GlcN6P (glucosamine-6-phosphate [1]) | self-cleavage kobs at 640 uM GlcN6P (glucosamine-6-phosphate [2]) | self-cleavage kobs at 40 uM GlcN6P (glucosamine-6-phosphate [3]) | self-cleavage kobs at 2500 uM GlcN6P (glucosamine-6-phosphate [4]) | self-cleavage kobs at 10000 uM GlcN6P (glucosamine-6-phosphate [5])
18 | AUAAAAGCGUCAGAACUACAGAAAUGUAGUUGUCGAGGAGGAGGUUUAUCGAAUUUUCGGCUGAUGCCUCAAAA | < 1e-05 s⁻¹ | < 1e-05 s⁻¹ | – | < 1e-05 s⁻¹ | < 1e-05 s⁻¹
19 | AUAAAAGCGCCAGAACUACAGAAAUGUAGUUGACGAGGAGGAGGUUUAUGGAAUUUUCGGCGGCUGCCUCCAAA | 7.93e-05 ± 2.1e-05 s⁻¹ | – | – | 6.53e-05 ± 1.7e-05 s⁻¹ | 2.52e-05 ± 1.2e-05 s⁻¹
20 | AUAAAAGCGGCAGAACUACAGAAAUGUAGUUGACGAGUAGGCGGUUUAUCGAAUUUUCGGCGGAUGCCUCCAAA | < 1e-05 s⁻¹ | – | – | < 1e-05 s⁻¹ | –
21 | AUAAAAGUGCUAGAAGUACAGAAAUGUAGUUGACGAGGAGGAGGUUUAUCGAAUGUUCGGCGGAUGCCUCCAAA | < 1e-05 s⁻¹ | < 1e-05 s⁻¹ | – | – | –
22 | AUAAAAGCGCCAGAACUACAGAAAUGUAGUUUACGAGGAGAAGGUUGAUCGAAUUUUCGGAUGAUGCCUCCAAA | < 1e-05 s⁻¹ | < 1e-05 s⁻¹ | – | < 1e-05 s⁻¹ | –
23 | AUAAAAGCGCCAGAACUACAGAAAUGUAGUUGACGAGGAGGAGGUUAAUCGAAUUUUCGGCGUAUGCCUCCAAA | < 1e-05 s⁻¹ | < 1e-05 s⁻¹ | – | < 1e-05 s⁻¹ | < 1e-05 s⁻¹
24 | AUAAAAGCGCCAGAACUACAGAAAUGUAUUUGACGAGGAGGAGGUUUAUCGAAUUUUCGGCGGAAGCGUCCAAA | 5.02e-05 ± 1.1e-05 s⁻¹ | 6.79e-05 ± 1.4e-05 s⁻¹ | – | 3.55e-05 ± 1.3e-05 s⁻¹ | –
25 | AUAAAAGCGCCAGGGCUACAGAAAUGUAGUUGACUAGGAGGAGGUUUAUCGAAUUUUCGGCGGAUGCCUCCAAA | < 1e-05 s⁻¹ | < 1e-05 s⁻¹ | – | < 1e-05 s⁻¹ | –
26 | AUAAAAGCGCCAGAACUACAGAAAUGUAGUUGACAAGGAGGAGGUUUAUCGAAGUUUCGGCGGAUGCGUCCAAA | – | – | 0.000144 ± 5.9e-05 s⁻¹ | – | –
27 | AUAAAAGCGCCAGAACUACAGAAAUGUAGUUGACGAUGAGGAGGUUUAUCGAAUUUUAGGCGGAUGCCUCCAAA | < 1e-05 s⁻¹ | – | – | – | < 1e-05 s⁻¹
28 | AUAAAAGAGCCAGAACUACAGAAAUGUACUUCACGAGGAGGAGGUUUAUCGAAUUUUCGGCGGAUGCCUCCAAA | < 1e-05 s⁻¹ | – | – | – | –
29 | AUAAAAGCGCCAGAACUACAGAAAUGUAGUUGACGAGGAGGAGUUUUAUAGAAUUUUCGGCGGAUGCCUCCAAA | < 1e-05 s⁻¹ | < 1e-05 s⁻¹ | – | < 1e-05 s⁻¹ | < 1e-05 s⁻¹
30 | AUAAAAGCGCCAGAACUACAGAAAUGUAGUUGACGAGGAGGAGGUUCAUCGAUUUAUCCGCGGAUGCCUCCAAA | – | < 1e-05 s⁻¹ | < 1e-05 s⁻¹ | < 1e-05 s⁻¹ | < 1e-05 s⁻¹
31 | AUAAAAGCGCCAGAACUACAGAAAUGUAGUUGACGAGGAGCAGGUUUAUCCAAUUUUCGGCGGCUGCCUCCAAA | < 1e-05 s⁻¹ | – | – | – | –
32 | AUAAAAGCGCCACAAAUACAGAAAUGUAGUUGACGAGGAGGAGGUUUAUCGAAUUUUCGGCGGAUGCUUCCAAA | < 1e-05 s⁻¹ | – | – | – | –
33 | AUAAAAGCGCGAGAACUACAGAAAUGUAGUUGACGAGGAGGCGGUUUAUCGAAUUUUCGGCGGAUGCCUCCAAA | < 1e-05 s⁻¹ | < 1e-05 s⁻¹ | – | < 1e-05 s⁻¹ | –
